This series has as its system COc1ccc(C=O)cc1OC. In words: purified protein. The conditions noted are these: reduction, 0.2 mM NADPH fixed, 25 mM bis-tris-propane/HCl pH 6.0, 25 °C, veratraldehyde 0.1-0.4 mM. It counts as biochemical, Taiwanofungus camphoratus.

Regarding “TcAAD (also printed TcADD) (Taiwanofungus camphoratus)”, the Km (usually the concentration of substrate that gives half-maximal velocity) turned out to be 250 µM.

The record behind these values is PMC5432818, “Biochemical characterization of a functional recombinant aryl-alcohol dehydrogenase from Taiwanofungus camphorata” (Botanical Studies, 2014).
